# Laboratory results from PMC11642994, “AGC family kinase of Entamoeba histolytica: Decoding the members biochemically” (PLOS Pathogens, 2024).
# “Also recorded” adds a separate entry of the source.
# What was measured:
# [1] = target: T1, EhAGCK1 WT (Entamoeba histolytica AGC family kinase 1, EHI_188930), full-length recombinant His-tagged protein (Entamoeba histolytica, UniProt C4M2W0 1-433); assay: MST; His-tagged kinase labelled with RED-tris-NTA 2nd Generation dye, kept constant (50 nM by the legend); unlabelled peptide in 16 1:1 dilutions, 500 uM to 153 nM as printed; 50 mM Tris-Cl pH 8, 150 mM NaCl, 1 mM beta-ME, 5% glycerol; 25 C; Monolith NT.115, 50% LED, medium MST power; settings: both partners purified
# T1 construct: also called His-EhAGCK1; source: E. coli C41(DE3), purified (Ni2+-NTA)
# T1 sequence: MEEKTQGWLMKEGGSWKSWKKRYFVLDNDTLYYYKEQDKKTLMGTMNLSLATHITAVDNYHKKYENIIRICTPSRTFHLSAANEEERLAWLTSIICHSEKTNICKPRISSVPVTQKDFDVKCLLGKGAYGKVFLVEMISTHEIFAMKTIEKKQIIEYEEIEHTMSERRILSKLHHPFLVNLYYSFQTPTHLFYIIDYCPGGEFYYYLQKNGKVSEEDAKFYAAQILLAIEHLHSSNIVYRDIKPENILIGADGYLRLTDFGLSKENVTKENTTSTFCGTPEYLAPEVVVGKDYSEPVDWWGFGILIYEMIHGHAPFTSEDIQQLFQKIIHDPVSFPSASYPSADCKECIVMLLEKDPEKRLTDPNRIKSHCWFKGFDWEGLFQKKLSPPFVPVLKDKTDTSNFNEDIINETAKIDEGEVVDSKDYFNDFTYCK
# [2] = target: T2, EhAGCK2 WT (Entamoeba histolytica AGC family kinase 2, EHI_053040), full-length recombinant His-tagged protein (Entamoeba histolytica, UniProt C4M3C2 1-434); assay: as above; settings: both partners purified
# T2 construct: source: E. coli C41(DE3), purified (Ni2+-NTA)
# T2 sequence: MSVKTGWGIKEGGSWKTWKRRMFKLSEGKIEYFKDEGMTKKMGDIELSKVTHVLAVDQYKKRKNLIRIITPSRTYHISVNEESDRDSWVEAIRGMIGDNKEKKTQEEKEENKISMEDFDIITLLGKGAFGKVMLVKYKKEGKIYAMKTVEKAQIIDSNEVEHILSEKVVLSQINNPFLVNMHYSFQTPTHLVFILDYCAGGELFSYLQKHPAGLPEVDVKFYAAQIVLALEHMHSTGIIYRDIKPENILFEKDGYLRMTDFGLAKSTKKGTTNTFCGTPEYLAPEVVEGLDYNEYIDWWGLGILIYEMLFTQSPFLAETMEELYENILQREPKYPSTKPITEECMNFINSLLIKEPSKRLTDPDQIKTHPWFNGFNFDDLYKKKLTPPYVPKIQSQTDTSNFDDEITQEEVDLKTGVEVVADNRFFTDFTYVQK
# HsGSK3 peptide = assay: ADP-Glo kinase activity of kinase variants with human GSK3 peptide in MgCl2 and MnCl2 buffers; assay type: biochemical; settings: for kinase activity with HsGSK3 peptide in Mg2+ / without Mn2+ (words): kinase 0-80 μM; for ion preference for kinase activity: MgCl2 versus MnCl2 buffer, HsGSK3 peptide; for Fold change (MgCl2: MnCl2): S1 Table, kinase activity in MgCl2 and MnCl2 buffers; for Fold change (MgCl2: MnCl2) / kinase activity with HsGSK3 peptide in presence of Mn2+: 60 min, 30°C
# Description: The phosphorylation activity of kinases was measured using the ADP-Glo kinase assay kit according to the manufacturer’s protocol with few modifications (Promega, Madison, WI, Catalogue number V6930). Assays were performed in a Corning 384-well low-volume white round bottom polystyrene NBS microplate with a total volume of 32 μl in the ratio of 1:1:2, corresponding to the kinase reaction, ADP-Glo reagent, and detection reagent, respectively. The kinase reaction was performed in an 8 μl volume containing 4 μl of purified protein kinases, 2 μl of peptide substrate, and 2 μl of ATP (Promega, Madison, WI). The working concentration of all the kinase reaction components was prepared in the standard kinase assay buffer (40 mM Tris-Cl pH 7.5, 20 mM MgCl2, 2 mM DTT). Along with other controls, only buffer-negative controls without protein kinase, substrate, and ATP were included in the kinase assay. Kinase assay reactions in each well were started immediately by adding ATP. The reactions were allowed to continue for 1 h at 30°C in the incubator chamber without shaking. The kinase assay was quenched by adding 8 μl of ADP-Glo reagent in each well before adding ADP-Glo reagent. The reaction plate was incubated for 5 min at room temperature. Termination reactions were allowed to proceed for 40 min at room temperature. ADP-Glo reagent, in addition to quenching the reaction, scavenges the unconsumed ATP from the reaction. In the final step of the ADP-Glo kinase assay, 16 μl of kinase detection reagent was added to each well and incubated for 40 min to simultaneously convert ADP to ATP and allow the newly synthesised ATP to be measured using a luciferase/luciferin reaction. The luminescent signal generated was measured using a SpectraMax i3x Multi-Mode Microplate Reader (Molecular Devices), and it was proportional to the ADP concentration produced and correlated with the kinase activity.
# The kinase assay data presented here are the mean ± standard error (SE) of n≥3 of three independent experiments. The Km and Vmax were determined from a direct, nonlinear fit of [V] versus [S] plots using the Michaelis-Menten equation: V=Vmax[S]/Km+[S] using the GraphPad Prism 9.0 software package (GraphPad Software Inc., CA, USA). Additionally, the Microscale Thermophoresis (MST) experiments were conducted using the Monolith NT.11.5 instrument, with triplicate runs. Statistical comparisons were made using Student’s t-test. Differences in mean values were considered significant at *p-value≤0.05, **p-value≤0.01, ***p-value≤0.001, ****p-value≤0.0001.
# autophosphorylation = assay: ATP biotinylation kinase assay (autophosphorylation, SA-HRPO western blot); assay type: biochemical, Entamoeba histolytica; settings: 4 μM kinase (EhPDK1 2 μM), 20 μM biotin-labelled ATP, 40 mM Tris-Cl pH 7.8, 10 mM MgCl2, 2 mM DTT, 30°C, 1 h
# Description: ATP biotinylation assays were performed in the presence of 4 μM of EhAGCK1 (WT, T275D, and KDD1) and EhAGCK2 (WT, T274D, and KDD2) along with 2 μM of wild-type EhPDK1 in the presence of activation buffer 40 mM Tris-Cl pH 7.8, 10 mM MgCl2, and 2 mM DTT and incubated at 30°C for 1 h. The reaction was triggered by adding 20 μM biotin-labelled ATP (Catalogue NU-970-BIO, Jena Bioscience). 20 μl of the reaction was collected at the indicated time point and quenched by the addition of 4x SDS-loading dye. After gel electrophoresis, phosphorylated proteins were visualized by immunoblotting using HRPO-conjugated streptavidin (Invitrogen).
# ATP biotinylated protein samples were separated by SDS-PAGE and then electro-transferred to PVDF membrane (Pall life sciences). The membrane was blocked overnight by 5% BSA (G-Biosciences) in TBS-T (TBS with 0.1% Tween 20) and stained with Ponceau S. This blocking process was done overnight at 4°C. The membrane was then incubated with 1:1000 dilution of HRPO-conjugated streptavidin (Invitrogen) at room temperature. Following antibody incubation, the blots were carefully cleaned with TBS-T. Band detection was carried out with a Millipore ECL kit.
# [3] = 50 μM HsGSK3 peptide, 250 μM ATP
# [4] = Mn2+ present, 50 μM HsGSK3 peptide, 250 μM ATP
Molecule,kinase activity with HsGSK3 peptide in Mg2+ / without Mn2+ (words) (HsGSK3 peptide; [3]),ion preference for kinase activity (HsGSK3 peptide),Fold change (MgCl2: MnCl2) (HsGSK3 peptide; [3]),autophosphorylation activity (words) (autophosphorylation),kinase activity with HsGSK3 peptide in presence of Mn2+ (HsGSK3 peptide; [4]),other results
"SSPSSVPAAQSTTPVNVPK [EhRhoGEF peptide (from RhoGEF, EHI_008090)]",–,–,–,–,–,Kd [1]: 307 nM
"KAGGADYSFNTTSN [EhCoactosin peptide (from Coactosin, EHI_168340)]",–,–,–,–,–,Kd [2]: 413 nM
"EhAGCK1 WT: recombinant full-length wild-type His-tagged AGC family kinase 1 of E. histolytica (protein, left off: His tag, end not stated, kept, recombinant full-length wild-type His-tagged AGC family kinase 1 of E. histolytica) MEEKTQGWLMKEGGSWKSWKKRYFVLDNDTLYYYKEQDKKTLMGTMNLSLATHITAVDNYHKKYENIIRICTPSRTFHLSAANEEERLAWLTSIICHSEKTNICKPRISSVPVTQKDFDVKCLLGKGAYGKVFLVEMISTHEIFAMKTIEKKQIIEYEEIEHTMSERRILSKLHHPFLVNLYYSFQTPTHLFYIIDYCPGGEFYYYLQKNGKVSEEDAKFYAAQILLAIEHLHSSNIVYRDIKPENILIGADGYLRLTDFGLSKENVTKENTTSTFCGTPEYLAPEVVVGKDYSEPVDWWGFGILIYEMIHGHAPFTSEDIQQLFQKIIHDPVSFPSASYPSADCKECIVMLLEKDPEKRLTDPNRIKSHCWFKGFDWEGLFQKKLSPPFVPVLKDKTDTSNFNEDIINETAKIDEGEVVDSKDYFNDFTYCK",did not utilize the HsGSK3 peptide as a substrate,only active in the presence of MnCl2 buffer; also recorded: maximum kinase activity in the presence of Mn^2+,15.67,exhibited autophosphorylation activity,–,"kinase activity with HsGSK3 peptide in Mg2+ / without Mn2+ (words) (HsGSK3 peptide; 50 μM HsGSK3 peptide, 250 μM ATP, listed as EhAGCK1): could not accept HsGSK3 peptide as substrate; increase in kinase activity with HsGSK3 peptide in presence of Mn2+ (HsGSK3 peptide; [4]): 16 fold; autophosphorylation activity (words) (autophosphorylation; listed as EhAGCK1): able to accept biotin-ATP as substrate and underwent autophosphorylation"
"KDD1: kinase-dead domain EhAGCK1 (K147A and D241A) (protein, left off: His tag, end not stated, kept) MEEKTQGWLMKEGGSWKSWKKRYFVLDNDTLYYYKEQDKKTLMGTMNLSLATHITAVDNYHKKYENIIRICTPSRTFHLSAANEEERLAWLTSIICHSEKTNICKPRISSVPVTQKDFDVKCLLGKGAYGKVFLVEMISTHEIFAMATIEKKQIIEYEEIEHTMSERRILSKLHHPFLVNLYYSFQTPTHLFYIIDYCPGGEFYYYLQKNGKVSEEDAKFYAAQILLAIEHLHSSNIVYRAIKPENILIGADGYLRLTDFGLSKENVTKENTTSTFCGTPEYLAPEVVVGKDYSEPVDWWGFGILIYEMIHGHAPFTSEDIQQLFQKIIHDPVSFPSASYPSADCKECIVMLLEKDPEKRLTDPNRIKSHCWFKGFDWEGLFQKKLSPPFVPVLKDKTDTSNFNEDIINETAKIDEGEVVDSKDYFNDFTYCK",–,–,–,remain inactive,remained inactive,–
"EhAGCK2 WT: recombinant full-length wild-type His-tagged AGC family kinase 2 of E. histolytica (protein, left off: His tag, end not stated, kept, recombinant full-length wild-type His-tagged AGC family kinase 2 of E. histolytica) MSVKTGWGIKEGGSWKTWKRRMFKLSEGKIEYFKDEGMTKKMGDIELSKVTHVLAVDQYKKRKNLIRIITPSRTYHISVNEESDRDSWVEAIRGMIGDNKEKKTQEEKEENKISMEDFDIITLLGKGAFGKVMLVKYKKEGKIYAMKTVEKAQIIDSNEVEHILSEKVVLSQINNPFLVNMHYSFQTPTHLVFILDYCAGGELFSYLQKHPAGLPEVDVKFYAAQIVLALEHMHSTGIIYRDIKPENILFEKDGYLRMTDFGLAKSTKKGTTNTFCGTPEYLAPEVVEGLDYNEYIDWWGLGILIYEMLFTQSPFLAETMEELYENILQREPKYPSTKPITEECMNFINSLLIKEPSKRLTDPDQIKTHPWFNGFNFDDLYKKKLTPPYVPKIQSQTDTSNFDDEITQEEVDLKTGVEVVADNRFFTDFTYVQK",phosphorylates HsGSK3 peptide,phosphorylates the peptide substrates in both MgCl2 and MnCl2 buffers; also recorded: optimal activity with Mg^2+,0.63,exhibited autophosphorylation activity,"showed no increment, in fact, a small decrease in the average kinase activity",autophosphorylation activity (words) (autophosphorylation; listed as EhAGCK2): able to accept biotin-ATP as substrate and underwent autophosphorylation
